{
  "source": "paper PMC3547953",
  "target": "tumor necrosis factor-alpha (TNF-α) (UniProt P01375)",
  "sequence (P01375 77-233)": "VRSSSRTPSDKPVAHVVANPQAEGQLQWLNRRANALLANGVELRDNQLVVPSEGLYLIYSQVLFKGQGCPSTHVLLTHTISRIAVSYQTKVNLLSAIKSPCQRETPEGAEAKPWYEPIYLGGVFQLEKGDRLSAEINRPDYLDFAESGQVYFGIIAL",
  "data": [
    {"substance": "anti-TNF-α antibody (ENBREL), a chimeric molecule combining the ligand-binding domain of the TNF-receptor 2 and the Fc-domain of human IgG1 (Fc fusion)", "values": [
      {"measurement": "apoptosis (TUNEL, DNA strand breaks) of uninfected monocytes induced by added TNF-α, with anti-TNF-α mAb (ENBREL, 1 µg/ml)", "result": 50, "unit": "%"}
    ]}
  ]
}
